From IntAct's records for PubMed 20494986 come the findings set out here.

To fix the notation:
B1: Type 3 secretion system chaperone PscG (Pseudomonas aeruginosa (strain ATCC 15692 / PAO1 / 1C / PRS 101 / LMG 12228)), P95435 (parent)
chain: MDTSLIRELAELALAGSGQHCHEEALCIAEWLERLGQDEAARLIRISSLANQGRYQEALAFAHGNPWPALEPWFALCEWHLGLGAALDRRLAGLGGSSDPALADFAAGMRAQVRT
partner: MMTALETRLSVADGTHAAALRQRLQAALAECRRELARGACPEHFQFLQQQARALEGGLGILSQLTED
B2: Type 3 secretion system chaperone PscE (Pseudomonas aeruginosa (strain ATCC 15692 / PAO1 / 1C / PRS 101 / LMG 12228)), Q9I317 (parent)
chain: B1 partner
partner: B1 chain

One assay covers variants of B1. The following applies: with psce_pseae pscE, Q9I317.
In the case of MDTSSIRESAELALAGSGQHCHEEALCIAEWLERLGQDEAARLIRISSLANQGRYQEALAFAHGNPWPALEPWFALCEWHLGLGAALDRRLAGLGGSSDPALADFAAGMRAQVRT [L5S;L9S], the “effect of a mutation on the interaction” value was “decreasing interaction”.

For the variant MDTSLIRELAELALAGSGQHCHEEALCSAESLERLGQDEAARLIRISSLANQGRYQEALAFAHGNPWPALEPWFALCEWHLGLGAALDRRLAGLGGSSDPALADFAAGMRAQVRT [I28S;W31S], the “effect of a mutation on the interaction” value is “decreasing interaction”.

With MDTSSIRELAELALAGSGQHCHEEALCIAEWLERLGQDEAARLIRISSLANQGRYQEALAFAHGNPWPALEPWFALCEWHLGLGAALDRRLAGLGGSSDPALADFAAGMRAQVRT [L5S], the “effect of a mutation on the interaction” value was “decreasing interaction”.

Regarding MDTSLIRELAELALAGSGQHCHEEALCSAEWLERLGQDEAARLIRISSLANQGRYQEALAFAHGNPWPALEPWFALCEWHLGLGAALDRRLAGLGGSSDPALADFAAGMRAQVRT [I28S], the “effect of a mutation on the interaction” value was “decreasing interaction”.

Take MDTSLIRESAELALAGSGQHCHEEALCIAEWLERLGQDEAARLIRISSLANQGRYQEALAFAHGNPWPALEPWFALCEWHLGLGAALDRRLAGLGGSSDPALADFAAGMRAQVRT [L9S]: the “effect of a mutation on the interaction” value is “decreasing interaction”.

Variants of B2 are the subject of the next assay. The following applies: with pscg_pseae pscG, P95435.
As for MMTALETRLSVADGTHAAASRQRLQAALAECRRELARGACPEHFQFLQQQARALEGGLGILSQLTED [L20S], the “effect of a mutation on the interaction” value is “decreasing interaction”.

MMTALETRLSVADGTHAAALRQRLQAALAECRRELARGACPEHFQFLQQQARALEGDLGILSQLTED [G57D]: the “effect of a mutation on the interaction” value is “disrupting interaction”.
